Measurements from the supplement of paper PMC10724198.
± gives the standard deviation of the averaged measurements.
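Note: PSI is a weighted mean of sequencing reads over stability bins, variants kept only with over 10 reads, mCherry proximal and sfGFP distal, peptide attached via GGGS linker.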

These sequences were tested on Saccharomyces cerevisiae (assay: protein stability index of tFT-peptide fusion (C-terminal peptide) (PSI (0-1 scale)); higher = more stable (slower turnover)). Settings: genetic background: wild type; temperature: 30 C.
Protocol: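 Multiplexed protein stability (MPS) profiling in S. cerevisiae. Random 12-aa peptides (tFT-X12 library) are fused to the C-terminus of a sfGFP-mCherry tandem fluorescent timer, after mCherry and a GGGS linker. Cells are FACS-sorted into 8 mCherry/sfGFP bins and deep-sequenced. The protein stability index (PSI) is the read-weighted bin average, scaled from 0 (unstable) to 1 (stable). Only peptides with >10 reads are reported; cells were grown at 30 °C in SC-His with glucose.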
DSRTLDQNRAKF was tested, and the protein stability index was 0.824 ± 0.032. With DSSCLVWYRCGC the protein stability index was 0.719 ± 0.083. For DSTGFRQNGQTD, the protein stability index was 0.73 ± 0.015. With DSTLCSCSLHTS the protein stability index was 0.777 ± 0.12. With DSTVGRTLRTRR the protein stability index was 0.617 ± 0.068. Work on DSVGVLVPRGFR yielded a protein stability index of 0.766 ± 0.045. Work on DTDRRWLGTFLV yielded a protein stability index of 0.534 ± 0.023. With DTLPSYPVHCRP the protein stability index was 0.71 ± 0.014. DTRRHSFCSGTG was tested, and the protein stability index was 0.697 ± 0.029. With DTSNRRFAYRRS the protein stability index was 0.533 ± 0.12. DTTTQPMSYEDP was tested, and the protein stability index was 0.669 ± 0.22. DTYSEQRIVVTK showed a protein stability index of 0.677 ± 0.012. DVHNCSLQAAKK was tested, and the protein stability index was 0.691 ± 0.012. For DVLCALYFGRSK, the protein stability index was 0.707 ± 0.045. For DVLGLSSRPFRV, the protein stability index was 0.665 ± 0.015. DVLSSVRGLTLL was tested, and the protein stability index was 0.678 ± 0.0082. For DVVWRVVNDSDL, the protein stability index was 0.712 ± 0.051. DYLGGGARSEVD showed a protein stability index of 0.745 ± 0.029. EACVAAMTPKSL showed a protein stability index of 0.657 ± 0.0083. With EADRAPSGGAGN the protein stability index was 0.673 ± 0.013. With EAGAKEWGAKQT the protein stability index was 0.7006 ± 0.007. In the case of EAGVGSGGGRCG, the protein stability index is reported as 0.673 ± 0.058. EALTLLGAFYLP was tested, and the protein stability index was 0.694 ± 0.025. For EALVVLGVGFFG, the protein stability index was 0.651 ± 0.021. For EARLGVGRCGTG, the protein stability index was 0.67 ± 0.0098. EAVVWGTLLCGG showed a protein stability index of 0.694 ± 0.01. Work on ECAGVVRAKLPA yielded a protein stability index of 0.718 ± 0.05. For ECGLGGWGGLGV, the protein stability index was 0.657 ± 0.078. ECIKVRGQWREI gave a protein stability index of 0.662 ± 0.011. With EDCAGIFCQSVK the protein stability index was 0.68 ± 0.015. Work on EDVPRGWACRGR yielded a protein stability index of 0.747 ± 0.024. In the case of EECSYERRRTRE, the protein stability index is reported as 0.8059 ± 0.0017. Sequence EEGGTRGASAVV has a protein stability index of 0.7134 ± 0.0024. EEKASKSSRLKK showed a protein stability index of 0.699 ± 0.036. In the case of EEQKAKQKQEYG, the protein stability index is reported as 0.639 ± 0.077. EERVEYHVALEV gave a protein stability index of 0.664 ± 0.024. EESAHPCRREVR gave a protein stability index of 0.58988 ± 3.9e-05. Sequence EESKEKKKNEEE has a protein stability index of 0.63584 ± 4.9e-05. Sequence EEVVAQYCITLS has a protein stability index of 0.5864 ± 0.0021. EFLGRVPNTQDG gave a protein stability index of 0.668 ± 0.078. Work on EGAGSAPCMVQG yielded a protein stability index of 0.68 ± 0.026. With EGDGAVGKTRGD the protein stability index was 0.691 ± 0.042. With EGEDRVEPGTQT the protein stability index was 0.722 ± 0.045. Work on EGGERGSKIVDT yielded a protein stability index of 0.593 ± 0.029. For EGGILHKKFTKS, the protein stability index was 0.696 ± 0.025. For EGGKGGLVIVGG, the protein stability index was 0.709 ± 0.11. EGGWRLVWGRGG was tested, and the protein stability index was 0.7222 ± 0.0024. For EGKNEFINGTTT, the protein stability index was 0.696 ± 0.023. In the case of EGKPALANSTVR, the protein stability index is reported as 0.712 ± 0.052. Sequence EGLCFLICKERS has a protein stability index of 0.729 ± 0.025. With EGPEGRDVVRRY the protein stability index was 0.644 ± 0.0096. EGRRAVGRGRGR was tested, and the protein stability index was 0.672 ± 0.05. For EGRTQTLPSRVT, the protein stability index was 0.638 ± 0.05. For EGVWIVMFCGLL, the protein stability index was 0.504 ± 0.11. With EIAGKGFRLGEW the protein stability index was 0.74 ± 0.052. Sequence EIKNKENKLKKT has a protein stability index of 0.684 ± 0.03. EILGFVFGFFFL was tested, and the protein stability index was 0.5711 ± 0.0016. In the case of EIRPRPYLCERF, the protein stability index is reported as 0.7253 ± 0.0064. Work on EISKKKKQTKRK yielded a protein stability index of 0.768 ± 0.12. EIVTTEINKKTN was tested, and the protein stability index was 0.7115 ± 0.004. For EKEGPDRGECGL, the protein stability index was 0.682 ± 0.0089. For EKGRERREGGRK, the protein stability index was 0.749 ± 0.044. In the case of EKKEKKETTDTE, the protein stability index is reported as 0.693 ± 0.023. EKKKEKKGKKRE showed a protein stability index of 0.683 ± 0.029. EKLVAERGMYAT gave a protein stability index of 0.684 ± 0.041. With EKQKIIRSGCES the protein stability index was 0.746 ± 0.16. In the case of EKRDRKKNPRGS, the protein stability index is reported as 0.744 ± 0.1. EKSEKSRGNRYV showed a protein stability index of 0.72 ± 0.076. Work on EKTKEHRNDSQR yielded a protein stability index of 0.695 ± 0.014. Work on EKVGVTVLLRHV yielded a protein stability index of 0.679 ± 0.038. In the case of ELGARGGRGGGR, the protein stability index is reported as 0.739 ± 0.038. With ELGGRGPGGWVG the protein stability index was 0.7149 ± 0.0041. With ELGLGGCGGLGV the protein stability index was 0.7 ± 0.03. For ELGSIYDGWARA, the protein stability index was 0.691 ± 0.011. In the case of ELKGRQLGSNLK, the protein stability index is reported as 0.691 ± 0.045. ELKKKYNEKKRI showed a protein stability index of 0.6885 ± 0.002. ELKVVVTPLVPS was tested, and the protein stability index was 0.588 ± 0.053. With EMGGLKACWGVG the protein stability index was 0.572 ± 0.022. EMPQNSKKNQAA gave a protein stability index of 0.672 ± 0.06. Sequence EMRAGNWWGREG has a protein stability index of 0.728 ± 0.054. For ENKGKKITITNE, the protein stability index was 0.625 ± 0.018. Work on ENPIASQWVRRY yielded a protein stability index of 0.6737 ± 0.0039. Work on ENQGEKKKKKKR yielded a protein stability index of 0.703 ± 0.022. ENRERVVENLRD was tested, and the protein stability index was 0.715 ± 0.04. For ENRGSGLQACGA, the protein stability index was 0.716 ± 0.1. Work on EPASLTVFEGTS yielded a protein stability index of 0.587 ± 0.022. Sequence EPPGWGRGTAQG has a protein stability index of 0.623 ± 0.07. For EPPQPPSLPPLF, the protein stability index was 0.739 ± 0.0085. For EQFQLCAREVAK, the protein stability index was 0.761 ± 0.047. Work on EQICNCKIIMVE yielded a protein stability index of 0.5669 ± 0.003. In the case of EQVTCGGIRVGQ, the protein stability index is reported as 0.656 ± 0.086. For ERCLRYRTVVDW, the protein stability index was 0.632 ± 0.063. ERGACPGLRQLN gave a protein stability index of 0.649 ± 0.015. Sequence ERGLATGRGGWV has a protein stability index of 0.733 ± 0.064. ERGSRKKKDRRR showed a protein stability index of 0.639 ± 0.01. For ERIGAREQPSAT, the protein stability index was 0.7075 ± 0.0056. Work on ERKKKNPSTTRR yielded a protein stability index of 0.684 ± 0.0086. ERNEERKATTRS showed a protein stability index of 0.726 ± 0.067. ERNKQNVTQKVK was tested, and the protein stability index was 0.723 ± 0.028. ERPIRPQCVHRM gave a protein stability index of 0.73 ± 0.015. ERPRRDTTVSDT gave a protein stability index of 0.653 ± 0.0083. ERQSMNKRERNP showed a protein stability index of 0.683 ± 0.023. ERRKQDERKRRV showed a protein stability index of 0.7059 ± 0.00075. ERRSGGHCRKSG showed a protein stability index of 0.685 ± 0.036. In the case of ERTKKKRRKEKH, the protein stability index is reported as 0.663 ± 0.011. With ERVWRAALAPVV the protein stability index was 0.618 ± 0.045. Work on ERWGGSGGGCAA yielded a protein stability index of 0.67 ± 0.051. For ESFFHIKPVLYI, the protein stability index was 0.647 ± 0.058. With ESFGGKAGRDSM the protein stability index was 0.772 ± 0.049. Sequence ESFLLSLNLLSY has a protein stability index of 0.6155 ± 0.0037. Sequence ESNRHSHVVGPA has a protein stability index of 0.683 ± 0.013. Work on ESSPQPIPSRLA yielded a protein stability index of 0.707 ± 0.016. Work on ESYRTYNSIQVY yielded a protein stability index of 0.518 ± 0.015. ETNSSSEFPLNF was tested, and the protein stability index was 0.755 ± 0.0089. ETRIRGVMPRAY showed a protein stability index of 0.659 ± 0.014. ETWRRIDRLFGS gave a protein stability index of 0.619 ± 0.058. Sequence EVAVELIGAPGL has a protein stability index of 0.699 ± 0.1. With EVDRRRSVITLP the protein stability index was 0.668 ± 0.033. EVEGGLSFSARG was tested, and the protein stability index was 0.706 ± 0.074. For EVEINGRLVGKM, the protein stability index was 0.646 ± 0.097. EVKDDSKVVVYV was tested, and the protein stability index was 0.666 ± 0.022. EVKERGRGCREG was tested, and the protein stability index was 0.659 ± 0.03. With EVRRGVGGAWEG the protein stability index was 0.648 ± 0.011. For EVSGGNRYWCGV, the protein stability index was 0.719 ± 0.022. With EVSHLGLVCGHL the protein stability index was 0.653 ± 0.081. EVSSGGQRVGRS was tested, and the protein stability index was 0.763 ± 0.018. EVWGSVETSCAS was tested, and the protein stability index was 0.739 ± 0.17. EWGRSGVRCRLG gave a protein stability index of 0.571 ± 0.052. Work on EWRWPTELNRKG yielded a protein stability index of 0.75 ± 0.051. EYAVLLFPHHPG showed a protein stability index of 0.623 ± 0.041. With EYGSWIRTASRV the protein stability index was 0.726 ± 0.016. EYKKKKTKANDT gave a protein stability index of 0.6944 ± 0.0015. Sequence EYRPPVPPPFPP has a protein stability index of 0.579 ± 0.033. With FAAGIMWQSGLK the protein stability index was 0.657 ± 0.019. With FAEWVRFWPGLV the protein stability index was 0.6682 ± 0.0064. FAHRVVCFCVFS showed a protein stability index of 0.505 ± 0.038. In the case of FALAVPLDPWSS, the protein stability index is reported as 0.737 ± 0.065. FAQRRGPAALNI gave a protein stability index of 0.70492 ± 0.00052. In the case of FARELGNLNVEK, the protein stability index is reported as 0.761 ± 0.056. FASPPPLPLPPH gave a protein stability index of 0.694 ± 0.02. With FCFHPLTGKLSG the protein stability index was 0.6536 ± 0.0029. FCFRFISCPLHF was tested, and the protein stability index was 0.549 ± 0.047. Sequence FCGLVIRFSEKV has a protein stability index of 0.653 ± 0.017. FCLFTYIPSSCL was tested, and the protein stability index was 0.664 ± 0.035. FCLGSFMFEGGR showed a protein stability index of 0.723 ± 0.032. With FCPPLSFPPPLS the protein stability index was 0.718 ± 0.13. FCRCNYLYRIPK was tested, and the protein stability index was 0.6615 ± 0.0026. For FCRVCLAFLSGL, the protein stability index was 0.781 ± 0.22. Work on FCRYSRAWKDFV yielded a protein stability index of 0.737 ± 0.087. FCSLLLFRFVVL gave a protein stability index of 0.517 ± 0.015. In the case of FCSPLPSSPPLP, the protein stability index is reported as 0.658 ± 0.028. FCSRVGFVFLRL gave a protein stability index of 0.489 ± 0.024. In the case of FCSSVSFPPAPL, the protein stability index is reported as 0.642 ± 0.035. FDFFLPFLCSSL gave a protein stability index of 0.827 ± 0.2. Work on FDMYACCQRGAV yielded a protein stability index of 0.6639 ± 0.0027.
